The data set can be described thus: self-splicing fitness, log relative to wild type (ln ratio); higher = more splicing; Tetrahymena group I intron in knt gene, E. coli kanamycin selection, DiMSum; sequences stand for … in CUCUCU…GGAGGGAAAAGUUAUCAGGCAUGCACCUGGUAGCUAGUCUUUAAACCAAUAGAUUGCAUCGGUUUAAAAGGCAAGACCGUCAAAUUGCGGGAAAGGGGUCAACAGCCGUUCAGUACCAAGUCUCAGGGGAAACUUUGAGAUGGCCUUGCAAAGGGUAUGGUAAUAAGCUGACGGACAUGGUCCUAACCACGCAGCCAAGUCCUAAGUCAACAGAUCUUCUGUUGAUAUGGAUGCAGUUCACAGACUAAAUGUCGGUCGGGGAAGAUGUAUUCUUCUCAUAAGAUAUAGUCGGACCUCUCCUUAAUGGGAGCUAGCGGAUGAAGUGAUGCAACACUGGAGCCGCUGGGAACUAAUUUGUAUGCGAAAGUAUAUUGAUUAGUUUUGGAGUACUCGUGGUCG
The method, boiled down: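 A randomised library covering all eight P1ex-region intron nucleotides was built with the intron in the knt kanamycin-resistance gene on pET-22b(+) and held in E. coli BL21(DE3). Cells were grown overnight at 37°C or 30°C on LB agar, with or without 25 μg/mL kanamycin, plus 100 μg/mL carbenicillin, 50 μM IPTG and 0.2% rhamnose, and pooled colonies were amplicon-sequenced on an Illumina HiSeq 2500. DiMSum fitness is the error-weighted combination of wild-type-normalised replicate fold changes, kanamycin versus none.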

± gives the uncertainty stated by the source.

For UUGGAGCAAUAUUACGAGGA, the “self-splicing fitness (ln)” value (30 °C) is -3.13 ± 0.48 and the “self-splicing fitness (ln)” value (37 °C) is -1.56 ± 0.27.

On to CUCGAGCAAUAUUACGCCUA, for which the “self-splicing fitness (ln)” value (37 °C) is -0.858 ± 0.46. As for UCACAGCAAUAUUACGUUGA, the “self-splicing fitness (ln)” value is, setting by setting: (30 °C) -2.56 ± 0.11; (37 °C) -2.1 ± 0.11. The matching figures for GAACAGCAAUAUUACGCCAG: -3.71 ± 0.15 and -3.05 ± 0.27. The matching figures for ACAGAGCAAUAUUACGUUGA: -2.69 ± 0.21 and -3.28 ± 0.27. The matching figures for GAAUAGCAAUAUUACGGGUC: -1.89 ± 0.21 and -2.68 ± 0.33. For the sequence CCGGAGCAAUAUUACGUUGC, for the setting “30 °C”, the “self-splicing fitness (ln)” value is -2.35 ± 0.32.

GCUCAGCAAUAUUACGGGCU: the “self-splicing fitness (ln)” value is, setting by setting: (30 °C) -4.72 ± 0.38; (37 °C) -2.63 ± 0.21.

Regarding AGCAAGCAAUAUUACGGAAC, the “self-splicing fitness (ln)” value is, setting by setting: (30 °C) -3.49 ± 0.43; (37 °C) -2.04 ± 0.18. The matching figures for UGGCAGCAAUAUUACGGCUC: -0.609 ± 0.082 and -0.683 ± 0.11. The matching figures for UGGAAGCAAUAUUACGCGGA: -1.17 ± 0.2 and -1.88 ± 0.23.

In the case of ACCGAGCAAUAUUACGAGUC, the “self-splicing fitness (ln)” value was -4.62 ± 0.3 (30 °C) and -3.25 ± 0.22 (37 °C). CUACAGCAAUAUUACGGCCA: the “self-splicing fitness (ln)” value (30 °C) was -3 ± 0.28. With UAGGAGCAAUAUUACGAGGU, where the note is “37 °C”, the “self-splicing fitness (ln)” value is -2.42 ± 0.32. In the case of GGACAGCAAUAUUACGGACA, the “self-splicing fitness (ln)” value runs as follows: (30 °C) -0.509 ± 0.11; (37 °C) -0.307 ± 0.11. The matching figures for AAGUAGCAAUAUUACGUUCA: -0.86 ± 0.081 and 0.409 ± 0.096. The matching figures for CUCUAGCAAUAUUACGCGUG: -3.84 ± 0.22 and -3.01 ± 0.19. Turning to GGAUAGCAAUAUUACGGCAC, the “self-splicing fitness (ln)” value (30 °C) is -1.16 ± 0.14 and the “self-splicing fitness (ln)” value (37 °C) is -0.0176 ± 0.17. The corresponding values for CUUUAGCAAUAUUACGCUAA are -4.31 ± 0.46 and -3.2 ± 0.47.

As for AUAGAGCAAUAUUACGACGA, the “self-splicing fitness (ln)” value is -0.935 ± 0.093 (30 °C) and -0.479 ± 0.13 (37 °C).

GUUAAGCAAUAUUACGAAGG: the “self-splicing fitness (ln)” value is -2.17 ± 0.18 (30 °C) and -1.87 ± 0.28 (37 °C). The matching figures for UCGAAGCAAUAUUACGUUCG: -1.54 ± 0.12 and -0.659 ± 0.19. With CAAAAGCAAUAUUACGGCAA, the “self-splicing fitness (ln)” value (30 °C) was -1.96 ± 0.17 and the “self-splicing fitness (ln)” value (37 °C) is -0.93 ± 0.14.

On to CAGAAGCAAUAUUACGGCAC, for which the “self-splicing fitness (ln)” value (30 °C) is -3.44 ± 0.41 and the “self-splicing fitness (ln)” value (37 °C) was -1.87 ± 0.32.

In the case of GACAAGCAAUAUUACGACCA, the “self-splicing fitness (ln)” value is, setting by setting: (30 °C) -0.459 ± 0.12; (37 °C) -0.806 ± 0.13. Take GGGGAGCAAUAUUACGUGAG: the “self-splicing fitness (ln)” value (30 °C) is -1.74 ± 0.26 and the “self-splicing fitness (ln)” value (37 °C) is -1.36 ± 0.2. AUCGAGCAAUAUUACGGGAC: the “self-splicing fitness (ln)” value was -2.89 ± 0.27 (30 °C) and -1.11 ± 0.19 (37 °C). Take CCAAAGCAAUAUUACGCAGG: the “self-splicing fitness (ln)” value reads like this: (30 °C) -3.23 ± 0.15; (37 °C) -3.74 ± 0.27. Turning to UGGGAGCAAUAUUACGCACG, the “self-splicing fitness (ln)” value (30 °C) was -3.26 ± 0.37. Consider ACAUAGCAAUAUUACGGCCG, for which the “self-splicing fitness (ln)” value by setting is: (30 °C) -0.333 ± 0.15; (37 °C) 0.385 ± 0.24. The corresponding values for GGUCAGCAAUAUUACGUUCA are -0.169 ± 0.13 and -0.487 ± 0.13. The matching figures for GUGCAGCAAUAUUACGACAC: -1.57 ± 0.25 and -0.906 ± 0.2.

In the case of GUAUAGCAAUAUUACGUUCG, the “self-splicing fitness (ln)” value (30 °C) is -2.09 ± 0.21 and the “self-splicing fitness (ln)” value (37 °C) was -1.53 ± 0.19. The corresponding values for UUCGAGCAAUAUUACGGACU are -4.76 ± 0.38 and -2.63 ± 0.21.

GCGCAGCAAUAUUACGACCU: the “self-splicing fitness (ln)” value was 0.0686 ± 0.071 (30 °C) and 0.0313 ± 0.084 (37 °C).

GACUAGCAAUAUUACGCUUU: the “self-splicing fitness (ln)” value by setting is: (30 °C) -2.59 ± 0.19; (37 °C) -1.66 ± 0.16.

In the case of CUAUAGCAAUAUUACGCCAG, the “self-splicing fitness (ln)” value is, setting by setting: (30 °C) -1.83 ± 0.18; (37 °C) -0.622 ± 0.25. The corresponding values for AUGCAGCAAUAUUACGAGAG are -4.15 ± 0.27 and -1.16 ± 0.12. UAAAAGCAAUAUUACGAAGA: the “self-splicing fitness (ln)” value was -2.44 ± 0.11 (30 °C) and -1.12 ± 0.097 (37 °C). Turning to AGCUAGCAAUAUUACGUGUC, the “self-splicing fitness (ln)” value was -3.35 ± 0.18 (30 °C) and -1.63 ± 0.14 (37 °C).

In the case of UCAAAGCAAUAUUACGGAAA, the “self-splicing fitness (ln)” value runs as follows: (30 °C) -2.64 ± 0.41; (37 °C) -1.15 ± 0.19. The matching figures for GUCGAGCAAUAUUACGUAUG: -3.13 ± 0.32 and -0.147 ± 0.21. The matching figures for GUUUAGCAAUAUUACGAUAC: -1.44 ± 0.18 and -0.147 ± 0.28. The corresponding values for CUCCAGCAAUAUUACGAACU are -2.92 ± 0.33 and -1.12 ± 0.29. As for CGUAAGCAAUAUUACGGGGG, the “self-splicing fitness (ln)” value (30 °C) is -2.61 ± 0.14 and the “self-splicing fitness (ln)” value (37 °C) is -2.69 ± 0.19. Regarding AUCGAGCAAUAUUACGUUAU, the “self-splicing fitness (ln)” value by setting is: (30 °C) -3.5 ± 0.26; (37 °C) -2.59 ± 0.28.

On to ACAAAGCAAUAUUACGAUCA, for which the “self-splicing fitness (ln)” value runs as follows: (30 °C) -0.675 ± 0.066; (37 °C) -0.735 ± 0.093. The matching figures for UAGUAGCAAUAUUACGUCCG: -0.377 ± 0.21 and -0.323 ± 0.36. The corresponding values for GACUAGCAAUAUUACGCUCA are -0.407 ± 0.1 and -0.306 ± 0.11.

For the sequence UGAGAGCAAUAUUACGGAUG, the “self-splicing fitness (ln)” value was -3.61 ± 0.19 (30 °C) and -3.56 ± 0.29 (37 °C). The corresponding values for AAAGAGCAAUAUUACGUACC are -3.04 ± 0.19 and -2.03 ± 0.28.

As to GGGCAGCAAUAUUACGCAAG, the “self-splicing fitness (ln)” value is -1.37 ± 0.24 (30 °C) and -0.431 ± 0.23 (37 °C). The matching figures for GACAAGCAAUAUUACGUAGC: -1.48 ± 0.069 and -0.611 ± 0.076. On to CGUGAGCAAUAUUACGCCGA, for which the “self-splicing fitness (ln)” value (37 °C) is -1.96 ± 0.41.

Turning to GAAUAGCAAUAUUACGAUGG, the “self-splicing fitness (ln)” value (30 °C) is -2.74 ± 0.14 and the “self-splicing fitness (ln)” value (37 °C) was -0.977 ± 0.12. As for CCCUAGCAAUAUUACGUAUG, the “self-splicing fitness (ln)” value (30 °C) was -3.75 ± 0.2 and the “self-splicing fitness (ln)” value (37 °C) was -3.63 ± 0.3. The corresponding values for CUCAAGCAAUAUUACGCCUC are -2.98 ± 0.14 and -2.97 ± 0.28. GAUAAGCAAUAUUACGAGAA: the “self-splicing fitness (ln)” value (37 °C) is -1.38 ± 0.38.

For the sequence CCAUAGCAAUAUUACGUCUC, the “self-splicing fitness (ln)” value is, setting by setting: (30 °C) -4.6 ± 0.28; (37 °C) -3.05 ± 0.22. The corresponding values for GUCAAGCAAUAUUACGUGGG are -3 ± 0.13 and -2.23 ± 0.2. The matching figures for UCACAGCAAUAUUACGACUG: -2.18 ± 0.098 and -0.964 ± 0.12. With UGUUAGCAAUAUUACGCACG, the “self-splicing fitness (ln)” value was -0.922 ± 0.11 (30 °C) and -0.377 ± 0.12 (37 °C). The matching figures for UAAAAGCAAUAUUACGUAUA: -1.82 ± 0.12 and -0.643 ± 0.12.

As for AACUAGCAAUAUUACGCAUC, the “self-splicing fitness (ln)” value is, setting by setting: (30 °C) -2.73 ± 0.14; (37 °C) -2.28 ± 0.22. The corresponding values for CGCAAGCAAUAUUACGUGAA are -2.5 ± 0.11 and -1.08 ± 0.11. Regarding CUUCAGCAAUAUUACGGCUC, the “self-splicing fitness (ln)” value is, setting by setting: (30 °C) -3.8 ± 0.37; (37 °C) -2.51 ± 0.35. As for CUUAAGCAAUAUUACGAACG, the “self-splicing fitness (ln)” value by setting is: (30 °C) -0.163 ± 0.11; (37 °C) 0.187 ± 0.14.

As to UCUGAGCAAUAUUACGACGU, the “self-splicing fitness (ln)” value by setting is: (30 °C) -0.648 ± 0.13; (37 °C) 0.778 ± 0.13. The corresponding values for CCUUAGCAAUAUUACGGUUC are -2.91 ± 0.18 and -2.72 ± 0.39. The corresponding values for CAAGAGCAAUAUUACGACCG are -0.953 ± 0.13 and -0.89 ± 0.14. Turning to UAACAGCAAUAUUACGUCUG, the “self-splicing fitness (ln)” value reads like this: (30 °C) -0.467 ± 0.059; (37 °C) 0.248 ± 0.077. The corresponding values for AUACAGCAAUAUUACGCCGA are -1.98 ± 0.18 and -1.51 ± 0.19. As for AUUCAGCAAUAUUACGAUGG, the “self-splicing fitness (ln)” value was -2.57 ± 0.16 (30 °C) and -0.688 ± 0.15 (37 °C).

For the sequence GACUAGCAAUAUUACGUCCC, the “self-splicing fitness (ln)” value is -1.82 ± 0.23 (30 °C) and -0.833 ± 0.22 (37 °C). Regarding UCGUAGCAAUAUUACGAUGU, the “self-splicing fitness (ln)” value by setting is: (30 °C) -3.41 ± 0.24; (37 °C) -2.24 ± 0.2.

With UUCUAGCAAUAUUACGUAUU, the “self-splicing fitness (ln)” value runs as follows: (30 °C) -3.61 ± 0.33; (37 °C) -2.57 ± 0.25.

As for GUGCAGCAAUAUUACGACAA, the “self-splicing fitness (ln)” value by setting is: (30 °C) -0.582 ± 0.066; (37 °C) -0.153 ± 0.07.

The values above are taken from the supplement of paper PMC7877785.
